Test results: patent US20240002437A1, “COMPOSITIONS AND METHODS OF TREATING INFLAMMATORY LUNG DISEASES” (priority 2020, published 2024)
“Also recorded” adds a separate entry of the source.

How the values were obtained:
purified PKCα = purified PKCα (Homo sapiens, UniProt P17252); experiment: In vitro peptide binding assay (biotinylated d-peptide, streptavidin capture, blot); conditions: biotinylated d-peptide 0 to 5 μg, PKC lipid activator, 1 hour room temperature
Method: (§1) Biotinylation of the decoy peptide (d-peptide) was performed using the Thermo Scientific EZ-Link Sulfo-NHS-LC-Biotinylation Kit. Briefly, Sulfo-NHS-LC-Biotin was mixed with d-peptide and the reaction mix was incubated at room temperature for 30 minutes. Different concentrations of the biotinylated d-peptide (0 to 5 μg) mixed with either purified eNOS protein or PKCα protein in a reaction mix containing PKC lipid activator were incubated at room temperature for 1 hour. Protein bound to the biotinylated d-peptide was captured using Thermo Scientific streptavidin agarose column and run on a 10% SDS-PAGE gel under reducing condition. The resulting blots were probed with antibodies to eNOS and PKCα protein respectively. Reactive bands were visualized using chemiluminescence on the LI-COR Odyssey image station.

purified eNOS protein = target: T1, purified eNOS protein (Homo sapiens, UniProt P29474); experiment: as above; conditions: biotinylated d-peptide 0 to 5 μg, 1 hour room temperature
T1 sequence (P29474 1-1203): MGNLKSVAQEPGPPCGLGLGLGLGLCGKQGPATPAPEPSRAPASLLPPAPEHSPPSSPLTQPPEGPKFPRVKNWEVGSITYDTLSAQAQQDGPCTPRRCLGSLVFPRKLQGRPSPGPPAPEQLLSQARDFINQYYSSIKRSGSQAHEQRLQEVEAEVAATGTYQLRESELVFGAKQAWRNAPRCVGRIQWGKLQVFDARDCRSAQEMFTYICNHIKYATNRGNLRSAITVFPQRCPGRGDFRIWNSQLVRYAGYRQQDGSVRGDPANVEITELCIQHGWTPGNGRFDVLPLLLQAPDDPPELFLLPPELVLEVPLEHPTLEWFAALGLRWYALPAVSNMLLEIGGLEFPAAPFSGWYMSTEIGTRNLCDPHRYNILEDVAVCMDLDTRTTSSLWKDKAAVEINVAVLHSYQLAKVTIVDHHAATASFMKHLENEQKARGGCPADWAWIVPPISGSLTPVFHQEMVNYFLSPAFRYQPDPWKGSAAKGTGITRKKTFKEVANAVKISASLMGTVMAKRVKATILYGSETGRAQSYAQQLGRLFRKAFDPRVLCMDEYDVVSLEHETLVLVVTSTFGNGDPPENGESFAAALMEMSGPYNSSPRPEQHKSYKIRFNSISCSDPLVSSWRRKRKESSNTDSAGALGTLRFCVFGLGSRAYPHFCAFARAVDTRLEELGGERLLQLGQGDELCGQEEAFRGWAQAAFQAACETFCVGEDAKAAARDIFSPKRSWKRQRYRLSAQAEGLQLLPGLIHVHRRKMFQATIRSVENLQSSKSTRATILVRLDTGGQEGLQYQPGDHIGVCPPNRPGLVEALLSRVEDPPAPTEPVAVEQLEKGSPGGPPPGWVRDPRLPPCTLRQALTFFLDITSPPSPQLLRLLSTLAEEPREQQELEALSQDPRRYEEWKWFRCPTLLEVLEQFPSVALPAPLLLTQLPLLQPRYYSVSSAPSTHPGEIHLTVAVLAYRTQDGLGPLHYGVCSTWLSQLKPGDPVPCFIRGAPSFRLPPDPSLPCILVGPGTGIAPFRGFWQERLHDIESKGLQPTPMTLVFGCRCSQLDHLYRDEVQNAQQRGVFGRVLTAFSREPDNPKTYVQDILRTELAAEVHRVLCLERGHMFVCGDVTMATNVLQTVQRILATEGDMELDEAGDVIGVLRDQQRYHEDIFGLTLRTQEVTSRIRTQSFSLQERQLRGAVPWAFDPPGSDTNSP
Method: as §1

TRPV4 = experiment: Cytosolic Ca2+ concentration ([Ca2+]cyt), fura-2/AM loaded PAEC; format: cell-based, ovine; conditions: 4αPDD 10 μM
Method: (§2) Primary cultures of ovine pulmonary arterial endothelial cells (PAEC) were isolated as described previously (L. K. Kelly, Am J Physiol Lung Cell Mol Physiol, 286(5), L984-91 (2004)). Briefly, cells were maintained in Dulbecco's modified Eagle medium (DMEM) supplemented with 10% fetal calf serum (Hyclone, Logan, UT), antibiotics/antimycotic (500 IU Penicillin, 500 μg/ml Streptomycin, 1.25 μg/ml Amphotericin B; MediaTech, Herndon, VA) at 37° C. in a humidified atmosphere with 5% CO2 and 95% air. Cells were used for experiments between passages 9-14, seeded at ˜50% confluence, and utilized when fully confluent.
PAEC were grown at 50-60% confluence on 25-mm-diameter circular glass coverslips. […] The fluorescence emission (at 520 nm) was captured with an EM-CC camera (Evolve; Photometric, Tucson, AZ) and analyzed using NIS Elements 3.2 software (Nikon). [Ca^2+]cyt is expressed as 340/380 fluorescence ratio within an area of interest in the peripheral area of a cell recorded every 2 s. […] [Ca^2+]cyt was calculated using the following equation: [Ca^2+]cyt=Kd×(Sf2/Sf1)×(R−Rmin)/(Rmax−R). Kd (225 nM) is the dissociation constant of the Ca2+-fura-2 complex; and Sf2 and Sf1 and Rmin and Rmax were calculated using a standard protocol (G. Grynkiewicz, J Biol Chem, 260(6), 3440-50 (1985)). […]

PKC = PKC activity, dot-blot of PKC-phosphorylated proteins; format: cell-based, ovine; conditions: PAEC; 4αPDD 10 μM, 2, 4 and 6 hours
Method: as §2
Activation of PKC in control and 4αPDD-treated EC was evaluated using dot-blot method and antibodies specific to PKC-phosphorylated proteins. The cell lysates were transferred on nitrocellulose membrane using Bio-Dot Microfiltration apparatus (Bio-Rad) according to Instruction Manual. To detect and evaluate levels of PKC-phosphorylated proteins, Phospho-(Ser) PKC Substrate rabbit polyclonal antibody (Cell Signaling) was used. After visualization of PKC-phosphorylated proteins, the membrane was stripped and re-probed with β-actin antibody for normalization.

Compound	binding to purified PKCα (purified PKCα)	binding to eNOS (purified eNOS protein)	cytosolic free Ca2+ concentration ([Ca2+]cyt) (TRPV4)	PKC activity (PKC)
HRKKRRQRRITRKKTFKEVA [d-peptide]	binds efficiently; also recorded: able to bind efficiently to purified PKCα	but not to eNOS	–	–
CCCCCCCCCC(=O)O[C@@H]1[C@@H](C)[C@@]2(O)[C@@H](C=C(CO)C[C@@]3(O)C(=O)C(C)=C[C@@H]23)[C@@H]2C(C)(C)[C@]12OC(=O)CCCCCCCCC [4αPDD, 4α-Phorbol-12,13 didecanoate]	–	–	transient increase of [Ca^2+]cyt; also recorded: induced a transient increase	increases PKC activity
